Reference: patent publication US20020058275A1, “Compositions, kits, and methods for effecting adenine nucleotide modulation of DNA mismatch recognition proteins” (Thomas Jefferson University, priority 1997, published 2002)

Tested on: GST-hMSH3
Test: GST fusion protein interaction assay
Format: binding, human
Settings: 35S-labeled IVTT protein as prey
Experimental: An overnight culture of E. coli XL-blue cells which harbored pGEX-hMSH(X) (i.e. ‘X’ being 2, 3, or 6) was grown in LB with […] ampicillin. 50 milliliter of Luria broth containing ampicillin was inoculated with 1 milliliter of the overnight culture, and the culture was incubated until the optical density, as assessed at 600 nanometers, was about 0.5. IPTG was added to a final concentration of 0.1 millimolar, and the culture container placed in a shaker at 30° C. for 2 hours to generate induced cells. […] GST-fusion protein levels were quantified as described herein. […] GST-fusion protein expression levels were quantitated by Coomassie Brilliant Blue staining of protein separated by SDS-PAGE gels, using BSA as a standard.
In vitro transcription and translation (IVTT) reactions involving ^35S-Methionine were performed with pET-hMSH(Y) (i.e. where ‘Y’ was 2, 3, or 6) using purified DNA according to the manufacturers recommendations. […] This value was calculated using the specific activity of ^35 S-Methionine, correcting for the number of methionine residues in each IVTT construct and using SDS-PAGE and a Molecular Dynamics Phosphorlmager device equipped with ImageQuant software (Sunnyvale, Calif.). […]

B1: hMSH5: human MutS homolog, putative 834-amino-acid protein encoded by clone b29 (SEQ ID NO: 29) (protein)
chain: MASLGANPRRTPQGPRPGAASSGFPSPAPVPGPREAEEEEVEEEEELAEIHLCVLWNSGYLGIAYYDTSDSTIHFMPDAPDHESLKLLQRVLDEINPQSVVTSAKQDENMTRFLGKLASQEHREPKRPEIIFLPSVDFGLEISKQRLLSGNYSFIPDAMTATEKILFLSSIIPFDCLLTVRALGGLLKFLGRRRIGVELEDYNVSVPILGFKKFMLTHLVNIDQDTYSVLQIFKSESHPSVYKVASGLKEGLSLFGILNRCHCKWGEKLLRLWFTRPTHDLGELSSRLDVIQFFLLPQNLDMAQMLHRLLGHIKNVPLILKRMKLSHTKVSDWQVLYKTVYSALGLRDACRSLPQSIQLFRDIAQEFSDDLHHIASLIGKVVDFEGSLAENRFTVLPNIDPEIDEKKRRLMGLPSFLTEVARKELENLDSRIPSCSVIYIPLIGFLLSIPRLPSMVEASDFEINGLDFMFLSEEKLHYRSARTKELDALLGDLHCEIRDQETLLMYQLQCQVLARAAVLTRVLDLASRLDVLLALASAARDYGYSRPRYSPQVLGVRIQNGRHPLMELCARTFVPNSTECGGDKGRVKVITGPNSSGKSIYLKQVGLITFMALVGSFVPAEEAEIGAVDAIFTRIHSCESISLGLSTFMIDLNQVAKAVNNATAQSLVLIDEFGKGTNTVDGLALLAAVLRHWLARGPTCPHIFVATNFLSLVQLQLLPQGPLVQYLTMETCEDGNDLVFFYQVCEGVAKASHASHTAAQAGLPDKLVARGKEVSDLIRSGKPIKPVKDLLKKNQMENCQTLVDKFMKLDLEDPNLDLNVFMSQEVLPAATSIL
modifications: left off: a dimerising Fc or GST; large carriers; small tags and cut ends
interaction with GST-hMSH3 fusion protein: did not interact
